# Target: PC-BSA
# Assay: ELISA (DELFIA TRF), PC-BSA coated, titrated IgG1
# Sequence of PC-BSA (P02769 25-607 limits assumed, form in doubt): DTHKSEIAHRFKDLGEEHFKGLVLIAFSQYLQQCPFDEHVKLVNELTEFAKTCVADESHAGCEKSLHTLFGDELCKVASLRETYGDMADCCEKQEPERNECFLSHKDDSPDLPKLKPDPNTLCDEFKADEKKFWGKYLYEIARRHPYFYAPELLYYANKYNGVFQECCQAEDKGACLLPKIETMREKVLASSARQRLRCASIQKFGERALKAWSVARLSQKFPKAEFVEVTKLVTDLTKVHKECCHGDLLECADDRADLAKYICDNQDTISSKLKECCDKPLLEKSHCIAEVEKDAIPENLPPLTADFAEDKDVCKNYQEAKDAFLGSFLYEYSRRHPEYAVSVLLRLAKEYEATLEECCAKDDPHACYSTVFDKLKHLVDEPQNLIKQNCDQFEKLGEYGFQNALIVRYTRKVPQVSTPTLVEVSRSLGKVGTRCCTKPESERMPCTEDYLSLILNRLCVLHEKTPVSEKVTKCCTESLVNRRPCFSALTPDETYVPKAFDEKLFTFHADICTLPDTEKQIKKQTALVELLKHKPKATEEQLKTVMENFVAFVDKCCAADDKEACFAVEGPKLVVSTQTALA
row,EC50,Binder
1,263 pM,"PcOxP_DB01_G05 (human IgG1) (antibody, V domains shown) VH: EVQLLESGGGLVQPGGSLRLSCAASGFTFSSYYMEWVRQAPGKGLEWVAASRNKANEYTTEYADSVKGRFTISRDNSKNTLYLQMNSLRAEDTAVYYCARDYYGSSYWYFDVWGQGTLVTVSS VL: DIVMTQSPDSLAVSLGERATINCTASESLYSSKHKVHYLAWYQQKPGQPPKLLIYGASNRYIGVPDRFSGSGSGTDFTLTISSLQAEDVAVYYCANFYSYPLTFGGGTKVEIK"
2,317 pM,"PcOxP_DB01_B09 (human IgG1) (antibody, V domains shown) VH: EVQLLESGGGLVQPGGSLRLSCAASGFTFSDYYMEWVRQAPGKGLEWVAASRNKANDYTTEYADSVKGRFTISRDNSKNTLYLQMNSLRAEDTAVYYCARDYYGSSYWYFDVWGQGTLVTVSS VL: DIQMTQSPSSLSASVGDRVTITCTASESLYSSKHKVHYLAWYQQKPGKAPKLLIYGASNRYTGVPSRFSGSGSGTDFTLTISSLQPEDFATYYCAQFYHYPLTFGGGTKVEIK"
3,640 pM,"PcOxP_DB02_C01 (human IgG1) (antibody, V domains shown) VH: EVQLLESGGGLVQPGGSLRLSCAASGFTFSDAYMEWVRQAPGKGLEWVAASRNKANDYTTEYADSVKGRFTISRDNSKNTLYLQMNSLRAEDTAVYYCARDYYGSSYWYFDVWGQGTLVTVSS VL: DIQMTQSPSSLSASVGDRVTITCTASESLYSSKHKVHYLAWYQQKPGKAPKLLIYGASNRYIGVPSRFSGSGSGTDFTLTISSLQPEDFATYYCAQFYSYPLTFGGGTKVEIK"
4,664 pM,"PcOxP_DB03_A09 (human IgG1) (antibody, V domains shown) VH: EVQLLESGGGLVQPGGSLRLSCAASGFTFSDYYMEWVRQAPGKGLEWVAASRNKANDYTTEYADSVKGRFTISRDNSKNTLYLQMNSLRAEDTAVYYCARDYYGSSYWYFDVWGQGTLVTVSS VL: DIQMTQSPSSLSASVGDRVTITCTASESLYSSKHKVHYLAWYQQKPGKAPKLLIYGASNRGIGVPSRFSGSGSGTDFTLTISSLQPEDFATYYCAQFYSYPLTFGGGTKVEIK"
5,310 pM,"PcOxP_DB01_C04 (human IgG1) (antibody, V domains shown) VH: EVQLLESGGGLVQPGGSLRLSCAASGFQFSDFYMEWVRQAPGKGLEWVAASRNKANDYTTEYADSVKGRFTISRDNSKNTLYLQMNSLRAEDTAVYYCARDYYGSSYWYFDVWGQGTLVTVSS VL: DIQMTQSPSSLSASVGDRVTITCTASESLYSSKHKVHYLAWYQQKPGKAPKLLIYGASNRYIGVPSRFSGSGSGTDFTLTISSLQPEDFATYYCAQFYYYPLTFGGGTKVEIK"
6,445 pM,"PcOxP_DB03_H08 (human IgG1) (antibody, V domains shown) VH: EVQLLESGGGLVQPGGSLRLSCAASGGTFSDFYMEWVRQAPGKGLEWVAASRNKANTYTTEYADSVKGRFTISRDNSKNTLYLQMNSLRAEDTAVYYCARDYYGSSYWYFDVWGQGTLVTVSS VL: DIQMTQSPSSLSASVGDRVTITCTASESLYSSKHKVHYLAWYQQKPGKAPKLLIYGSSNRYIGVPSRFSGSGSGTDFTLTISSLQPEDFATYYCAQFYQYPLTFGGGTKVEIK"
7,643 pM,"PcOxP_DB02_A06 (human IgG1) (antibody, V domains shown) VH: EVQLLESGGGLVQPGGSLRLSCAASGFTFSDQYMEWVRQAPGKGLEWVAASRNKANDYTTEYADSVKGRFTISRDNSKNTLYLQMNSLRAEDTAVYYCARDYYGSSYWYFDVWGQGTLVTVSS VL: DIQMTQSPSSLSASVGDRVTITCTASESLYSSKHKVHYLAWYQQKPGKAPKLLIYGLSNRYIGVPSRFSGSGSGTDFTLTISSLQPEDFATYYCAQFYSYPLTFGGGTKVEIK"
8,417 pM,"PcOxP_DB01_E05 (human IgG1) (antibody, V domains shown) VH: EVQLLESGGGLVQPGGSLRLSCAASGFTFSDYYMEWVRQAPGKGLEWVAASRNKANDYTTEYADSVKGRFTISRDNSKNTLYLQMNSLRAEDTAVYYCARDYYGSSYWYFDVWGQGTLVTVSS VL: DIQMTQSPSSLSASVGDRVTITCTASESLYSSKHKVNYLAWYQQKPGKAPKLLIYGASNRYIGVPSRFSGSGSGTDFTLTISSLQPEDFATYYCAQFYQYPLTFGGGTKVEIK"
9,299 pM,"PcOxP_DB03_B11 (human IgG1) (antibody, V domains shown) VH: EVQLLESGGGLVQPGGSLRLSCAASGFTFSDFYVEWVRQAPGKGLEWVAASRNKANTYTTEYADSVKGRFTISRDNSKNTLYLQMNSLRAEDTAVYYCARDYYGSSYWYFDVWGQGTLVTVSS VL: DIVMTQSPDSLAVSLGERATINCTASESLYSSKHKVHYLAWYQQKPGQPPKLLIYGAQNRYIGVPDRFSGSGSGTDFTLTISSLQAEDVAVYYCGQFYSYPLTFGGGTKVEIK"
10,242 pM,"PcOxP_DB01_D11 (human IgG1) (antibody, V domains shown) VH: EVQLLESGGGLVQPGGSLRLSCAASGFTFSSYYMEWVRQAPGKGLEWVAASRNKANDYTTEYADSVKGRFTISRDNSKNTLYLQMNSLRAEDTAVYYCARDYYGSSYWYNDVWGQGTLVTVSS VL: DIVMTQSPDSLAVSLGERATINCTASESLYSSKWKVHYLAWYQQKPGQPPKLLIYGASNRYIGVPDRFSGSGSGTDFTLTISSLQAEDVAVYYCAQFYSYPLTFGGGTKVEIK"
11,672 pM,"PcOxP_DB01_F01 (human IgG1) (antibody, V domains shown) VH: EVQLLESGGGLVQPGGSLRLSCAASGFPFSDFYMEWVRQAPGKGLEWVAASRNKANDYTTEYADSVKGRFTISRDNSKNTLYLQMNSLRAEDTAVYYCARDYYGSPYWYFDVWGQGTLVTVSS VL: DIVMTQSPDSLAVSLGERATINCTASESVYSSKNKKHYLAWYQQKPGQPPKLLIYGASNRYIGVPDRFSGSGSGTDFTLTISSLQAEDVAVYYCAQFYTYPLTFGGGTKVEIK"
12,413 pM,"PcOxP_DB04_A11 (human IgG1) (antibody, V domains shown) VH: EVQLLESGGGLVQPGGSLRLSCAASGFTFSDYYMEWVRQAPGKGLEWVAASRNKANTYTTEYADSVKGRFTISRDNSKNTLYLQMNSLRAEDTAVYYCARDYYGSSYWYFDVWGQGTLVTVSS VL: DIVMTQSPDSLAVSLGERATINCTASESVLSSKHKKNYLAWYQQKPGQPPKLLIYGASTRYIGVPDRFSGSGSGTDFTLTISSLQAEDVAVYYCAQFYSYPLTFGGGTKVEIK"
13,430 pM,"PcOxP_DB01_A06 (human IgG1) (antibody, V domains shown) VH: EVQLLESGGGLVQPGGSLRLSCAASGFTFSDYYMEWVRQAPGKGLEWVAASRNKANDYTTEYADSVKGRFTISRDNSKNTLYLQMNSLRAEDTAVYYCARDYYGSSYWYFDVWGQGTLVTVSS VL: DIQMTQSPSSLSASVGDRVTITCTASESLYSSKHKVHYLAWYQQKPGKAPKLLIYGASNRYIGVPSRFSGSGSGTDFTLTISSLQPEDFATYYCAEFYSYPLTFGGGTKVEIK"
14,423 pM,"PcOxP_DB02_H07 (human IgG1) (antibody, V domains shown) VH: EVQLLESGGGLVQPGGSLRLSCAASGFTFSSYYMEWVRQAPGKGLEWVAASRNKANDYTTEYADSVKGRFTISRDNSKNTLYLQMNSLRAEDTAVYYCARDYYGSSYWYFDVWGQGTLVTVSS VL: DIVMTQSPDSLAVSLGERATINCTASESLYSSKHKVHYLAWYQQKPGQPPKLLIYGASNRYNGVPDRFSGSGSGTDFTLTISSLQAEDVAVYYCAQFYTYPLTFGGGTKVEIK"
15,275 pM,"PcOxP_DB01_H01 (human IgG1) (antibody, V domains shown) VH: EVQLLESGGGLVQPGGSLRLSCAASGFTFSSYYMEWVRQAPGKGLEWVAASRNKANLYTTEYADSVKGRFTISRDNSKNTLYLQMNSLRAEDTAVYYCARDYYGSSTWYFDVWGQGTLVTVSS VL: DIVMTQSPDSLAVSLGERATINCTASESLYSSKHKVHYLAWYQQKPGQPPKLLIYGASNRYIGVPDRFSGSGSGTDFTLTISSLQAEDVAVYYCAQFYSYPLTFGGGTKVEIK"
16,285 pM,"PcOxP_DB03_C10 (human IgG1) (antibody, V domains shown) VH: EVQLLESGGGLVQPGGSLRLSCAASGFTFSSYYMEWVRQAPGKGLEWVAASRNKANEYTTEYADSVKGRFTISRDNSKNTLYLQMNSLRAEDTAVYYCARDYYGSSYWYFDVWGQGTLVTVSS VL: DIVMTQSPDSLAVSLGERATINCTASESLYSSKHKVHYLAWYQQKPGQPPKLLIYGAGNRYIGVPDRFSGSGSGTDFTLTISSLQAEDVAVYYCAQFYSYPLTFGGGTKVEIK"
17,274 pM,"PcOxP_DB01_D01 (human IgG1) (antibody, V domains shown) VH: EVQLLESGGGLVQPGGSLRLSCAASGFTFSSYYMEWVRQAPGKGLEWVAASRNKANDYTTEYADSVKGRFTISRDNSKNTLYLQMNSLRAEDTAVYYCARDYYGSSYWYFDVWGQGTLVTVSS VL: DIVMTQSPDSLAVSLGERATINCTASESLYSPKHKVHYLAWYQQKPGQPPKLLIYGASNRYIGVPDRFSGSGSGTDFTLTISSLQAEDVAVYYCAQFYIYPLTFGGGTKVEIK"
18,430 pM,"PcOxP_DB01_H02 (human IgG1) (antibody, V domains shown) VH: EVQLLESGGGLVQPGGSLRLSCAASGFTFSSYYMEWVRQAPGKGLEWVAASRNKANDYTTEYADSVKGRFTISRDNSKNTLYLQMNSLRAEDTAVYYCARDYYGSSYWYFDVWGQGTLVTVSS VL: DIVMTQSPDSLAVSLGERATINCTASSSLYSSKHKVHYLAWYQQKPGQPPKLLIYGASNRYIGVPDRFSGSGSGTDFTLTISSLQAEDVAVYYCAQFYSYPLTFGGGTKVEIK"
19,456 pM,"PcOxP_DB01_H04 (human IgG1) (antibody, V domains shown) VH: EVQLLESGGGLVQPGGSLRLSCAASGFAFSDFYMEWVRQAPGKGLEWVAASRNKANDYTTEYADSVKGRFTISRDNSKNTLYLQMNSLRAEDTAVYYCARDYYGSHYWYFDVWGQGTLVTVSS VL: DIQMTQSPSSLSASVGDRVTITCTASESLYSSKHKVHYLAWYQQKPGKAPKLLIYGASNLQSGVPSRFSGSGSGTDFTLTISSLQPEDFATYYCAQFYYYPLTFGGGTKVEIK"
20,308 pM,"PcOxP_DB01_G09 (human IgG1) (antibody, V domains shown) VH: EVQLLESGGGLVQPGGSLRLSCAASGFTFSDYYMEWVRQAPGKGLEWVAASRNKANTYTTEYADSVKGRFTISRDNSKNTLYLQMNSLRAEDTAVYYCARDYYGSSYWYFDVWGQGTLVTVSS VL: DIQMTQSPSSLSASVGDRVTITCTASESLYSSKHKVHYLAWYQQKPGKAPKLLIYGASNLYSGVPSRFSGSGSGTDFTLTISSLQPEDFATYYCAQFYSYPLTFGGGTKVEIK"
21,407 pM,"PcOxP_DB01_G10 (human IgG1) (antibody, V domains shown) VH: EVQLLESGGGLVQPGGSLRLSCAASGFTFSDFYMEWVRQAPGKGLEWVAASRNKNNDYTTEYADSVKGRFTISRDNSKNTLYLQMNSLRAEDTAVYYCARDYYGSSYWYFDVWGQGTLVTVSS VL: DIVMTQSPDSLAVSLGERATINCKASQSLYSSKHKKHYLAWYQQKPGQPPKLLIYGASNRYPGVPDRFSGSGSGTDFTLTISSLQAEDVAVYYCAQFYRYPLTFGGGTKVEIK"
22,282 pM,"PcOxP_DB04_E05 (human IgG1) (antibody, V domains shown) VH: EVQLLESGGGLVQPGGSLRLSCAASGNTFSDFYMEWVRQAPGKGLEWVAASRNKANYYTTEYADSVKGRFTISRDNSKNTLYLQMNSLRAEDTAVYYCARDYYGSSYWYFDVWGQGTLVTVSS VL: DIVMTQSPDSLAVSLGERATINCTASESLYSSKHKVHYLAWYQQKPGQPPKLLIYGASNRYIGVPDRFSGSGSGTDFTLTISSLQAEDVAVYYCAQFYSYPLTFGGGTKVEIK"

# Source: patent US20250320312A1 (OXITOPE PHARMA B V, published 2025)
